Where two headings read alike, the source gives them in different places. Residues, ends and D or L forms follow the SMILES beside them.
What was measured:
GPR1 = molecular target: T1, GPR1 (Homo sapiens, UniProt P46091); experiment: β-arrestin recruitment (Tango), validation; type: cell-based; parameters: host or cells: HTLA cells (HEK293-derived)
T1 sequence (P46091 1-355): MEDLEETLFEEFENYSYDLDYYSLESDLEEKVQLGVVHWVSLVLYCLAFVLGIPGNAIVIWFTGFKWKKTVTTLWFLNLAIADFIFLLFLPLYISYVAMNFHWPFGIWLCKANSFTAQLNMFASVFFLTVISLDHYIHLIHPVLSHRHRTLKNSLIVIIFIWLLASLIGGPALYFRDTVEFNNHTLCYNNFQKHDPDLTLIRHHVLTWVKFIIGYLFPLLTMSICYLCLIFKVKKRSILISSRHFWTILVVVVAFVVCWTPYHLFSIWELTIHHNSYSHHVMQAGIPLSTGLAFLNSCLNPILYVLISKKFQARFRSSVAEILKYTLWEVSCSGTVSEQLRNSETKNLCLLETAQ

[1] = test system: 120 GPCR targets, including all available orphan receptors and 27 known class A peptide receptors; experiment: Peptide library screen, β-arrestin recruitment (Tango, fold change, 10 μM); type: cell-based, human; details: for Active at: (activity in b-arrestin recruitment assays): Tango, receptor(s) at which the known library peptide was active, among its known GPCR target(s), validated pairings; for Confirmation of known target in Tango: repeat hitters of the peptide library screen, the value names the known receptor(s) confirmed in the β-arrestin recruitment (Tango) screen
Description: The peptide library was additionally screened against 120 GPCR targets in parallel, including all available orphan receptors and 27 known class A peptide receptors using the Tango assay platform ([Kroeze et al., 2015]). Briefly, HTLA cells (a HEK293 cell line stably expressing a tTA-dependent luciferase reporter and a β-arrestin2-TEV fusion gene) were plated 10,000 cells/well in poly-L-lysine–coated clear-bottom white 384-well plates in DMEM supplemented with 10% FBS, 100 U/ml penicillin and 100 μg/ml streptomycin, 2 μg/ml puromycin and 100 μg/ml hygromycin B. 24 hr later, cells were transfected with Tango GPCR constructs using the calcium phosphate method ([Jordan et al., 1996]). The next day, culture medium was changed to DMEM + 1% dFBS and 10 μM peptides were added for overnight stimulation. Bright-Glo solution (Promega) was incubated for 15–20 min at room temperature, and luminescence was counted using a Trilux luminescence counter (Wallac).

human GPCRs = test system: human GPCRs; parameters: method as in Guide to Pharmacology database; details: max reported value, ref Guide to Pharmacology database, cited from earlier work; for pEC50_value: receptor XCR1 (xcr1_human, P46094)
From the text: Supplement mmc1.xlsx, sheet "HumanGPCRLigands" | column: pKi_value; pKd_value; pEC50_value; pIC50_value

[2] = receptor CCR4 (ccr4_human, P51679)
[3] = receptor CCR3 (ccr3_human, P51677)
[4] = receptor CCR1 (ccr1_human, P32246)
[5] = receptor CCR5 (ccr5_human, P51681)
[6] = receptor PROKR1 (pkr1_human, Q8TCW9)
[7] = receptor PROKR2 (pkr2_human, Q8NFJ6)

Molecule: CC(C)C[C@H](NC(=O)[C@H](CCCNC(=N)N)NC(=O)[C@H](CC(=O)O)NC(=O)[C@H](CC(C)C)NC(=O)[C@@H]1CCCN1C(=O)[C@H](CO)NC(=O)CNC(=O)[C@H](Cc1ccccc1)NC(=O)CNC(=O)[C@H](CO)NC(=O)[C@H](Cc1ccccc1)NC(=O)[C@H](CO)NC(=O)[C@H](CCCNC(=N)N)NC(=O)[C@@H](N)CCCCN)C(=O)N[C@@H](CO)C(=O)N[C@@H](C)C(=O)NCC(=O)N[C@@H](CO)C(=O)N[C@H](C(=O)N[C@@H](CC(=O)O)C(=O)N[C@@H](Cc1c[nH]cn1)C(=O)N[C@@H](CCCCN)C(N)=O)C(C)C [Peptide 141] (H-KRSFSGFGSPLDRLSAGSVDHK-NH2)
- EC50 (GPR1; HTLA cells transiently transfected, overnight stimulation, luciferase, mean ± SEM of 3-4 independent experiments in triplicate, read-out: pEC50, β-arrestin recruitment (Tango), GPR1 (converted)): 2510 nM

Molecule: AADHDVGSELPPEGVLGALLRV [Peptide 146]
- Active at: (activity in b-arrestin recruitment assays) [1]: GPR83

Molecule: CYFQNCPRG (disulfide) [Peptide 44]
- Active at: (activity in b-arrestin recruitment assays) [1]: V1a V1b V2 OT

Molecule: CYIQNCPLG (disulfide) [Peptide 45]
- Active at: (activity in b-arrestin recruitment assays) [1]: V1a V2 OT

Molecule: DEGPYRMEHFRWGSPPKD [Peptide 126]
- Active at: (activity in b-arrestin recruitment assays) [1]: MC4R

Molecule: FGGFTGARKSARKLANQ [Peptide 120]
- Active at: (activity in b-arrestin recruitment assays) [1]: NOP

Molecule: FRVDEEFQSPFASQSRGYFLFRPRN [Peptide 159]
- Active at: (activity in b-arrestin recruitment assays) [1]: NMUR1

Molecule: FVPIFTYGELQRMQEKERNKGQ [Peptide 145]
- Active at: (activity in b-arrestin recruitment assays) [1]: MLNR
- Confirmation of known target in Tango [1]: Motilin receptor

Molecule: ILQRGSGTAAVDFTKKDHTATWGRPFFLFRPRN [Peptide 195]
- Active at: (activity in b-arrestin recruitment assays) [1]: NMUR1, NMUR2
- Confirmation of known target in Tango [1]: NMUR1

Molecule: KRSFSGFGSPLDRLSAGSVDHK [141 original]
- b-arrestin recruitment assays (Tango) Emax (fold change) (GPR1; receptor GPR1, mean, SEM and n (2-3)): 14.4 fold change

Molecule: SYSMEHFRWGKPV [Peptide 93]
- Active at: (activity in b-arrestin recruitment assays) [1]: MC4R

Molecule: VPNLPQRF [Peptide 29]
- Active at: (activity in b-arrestin recruitment assays) [1]: NPFF1

Molecule: WYKPAAGHSSYSVGRAAGLLSGL [Peptide 152]
- Active at: (activity in b-arrestin recruitment assays) [1]: NPBW1

Molecule: YGGFL [Peptide 14]
- Active at: (activity in b-arrestin recruitment assays) [1]: Inactive

Molecule: YGGFLRKYP [Peptide 46]
- Active at: (activity in b-arrestin recruitment assays) [1]: Kappa

Molecule: YGGFMTSEKSQTPLVTLFKNAIIKNAYKKGE [Peptide 182]
- Active at: (activity in b-arrestin recruitment assays) [1]: kappa, mu

B1: CCL17 (protein, UniProt Q92583 24-94, looked up)
C-C motif chemokine 17: ARGTNVGRECCLEYFKGAIPLRKLKTWYQTSEDCSRDAIVFVTVQGRAICSDPNNKRVKNAVKYLQSLERS
- pIC50_value (human GPCRs; [2]): 8.7

B2: CCL24 (protein, UniProt O00175 27-119, looked up)
C-C motif chemokine 24: VVIPSPCCMFFVSKRIPENRVVSYQLSSRSTCLKAGVIFTTKKGQQFCGDPKQEWVQRYMKNLDAKQKKASPRARAVAVKGPVQRYPGNQTTC
- pIC50_value (human GPCRs; [3]): 9.4

B3: CCL4 (protein, UniProt P13236 24-92, looked up)
C-C motif chemokine 4: APMGSDPPTACCFSYTARKLPRNFVVDYYETSSLCSQPAVVFQTKRSKQVCADPSESWVQEYVYDLELN
- pKi_value (human GPCRs; [4]): 7.8
- pKi_value (human GPCRs; [5]): 9.6

B4: CCL1 (protein, UniProt P22362 24-96, looked up)
C-C motif chemokine 1: KSMQVPFSRCCFSFAEQEIPLRAILCYRNTSSICSNEGLIFKLKRGKEACALDTVGWVQRHRKMLRHCPSKRK
- pIC50_value (human GPCRs; receptor CCR8 (ccr8_human, P51685)): 9.8

B5: CCL22 (protein, UniProt O00626 25-93, looked up)
C-C motif chemokine 22: GPYGANMEDSVCCRDYVRYRLPLRVVKHFYWTSDSCPRPGVVLLTFRDKEICADPRVPWVKMILNKLSQ
- pIC50_value (human GPCRs; [2]): 9.2

B6: CCL14 (protein, UniProt Q16627 20-93, looked up)
C-C motif chemokine 14: TKTESSSRGPYHPSECCFTYTTYKIPRQRIMDYYETNSQCSKPGIVFITKRGHSVCTNPSDKWVQDYIKDMKEN
- pKi_value (human GPCRs; [4]): 7.4
- pKi_value (human GPCRs; [5]): 7.2

B7: CCL23 (protein, UniProt P55773 22-120, looked up)
C-C motif chemokine 23: RVTKDAETEFMMSKLPLENPVLLDRFHATSADCCISYTPRSIPCSLLESYFETNSECSKPGVIFLTKKGRRFCANPSDKQVQVCMRMLKLDTRIKTRKN
- pKi_value (human GPCRs; [4]): 8.9

B8: CCL8 (protein, UniProt P80075 24-99, looked up)
C-C motif chemokine 8: QPDSVSIPITCCFNVINRKIPIQRLESYTRITNIQCPKEAVIFKTKRGKEVCADPKERWVRDSMKHLDQIFQNLKP
- pIC50_value (human GPCRs; receptor CCR2 (ccr2_human, P41597)): 8.6
- pKi_value (human GPCRs; [5]): 9.3

B9: prokineticin-2 (protein, UniProt Q9HC23 28-129, looked up)
Prokineticin-2: AVITGACDKDSQCGGGMCCAVSIWVKSIRICTPMGKLGDSCHPLTRKNNFGNGRQERRKRKRSKRKKEVPFFGRRMHHTCPCLPGLACLRTSFNRFICLAQK
- pIC50_value (human GPCRs; [6]): 8.4
- pIC50_value (human GPCRs; [7]): 8.2

B10: CCL15 (protein, UniProt Q16663 22-113, looked up)
C-C motif chemokine 15: QFTNDAETELMMSKLPLENPVVLNSFHFAADCCTSYISQSIPCSLMKSYFETSSECSKPGVIFLTKKGRQVCAKPSGPGVQDCMKKLKPYSI
- pIC50_value (human GPCRs; [4]): 7.9
- pIC50_value (human GPCRs; [3]): 8.6

B11: CX3CL1 (protein, UniProt P78423 25-397, looked up)
Fractalkine: QHHGVTKCNITCSKMTSKIPVALLIHYQQNQASCGKRAIILETRQHRLFCADPKEQWVKDAMQHLDRQAAALTRNGGTFEKQIGEVKPRTTPAAGGMDESVVLEPEATGESSSLEPTPSSQEAQRALGTSPELPTGVTGSSGTRLPPTPKAQDGGPVGTELFRVPPVSTAATWQSSAPHQPGPSLWAEAKTSEAPSTQDPSTQASTASSPAPEENAPSEGQRVWGQGQSPRPENSLEREEMGPVPAHTDAFQDWGPGSMAHVSVVPVSSEGTPSREPVASGSWTPKAEEPIHATMDPQRLGVLITPVPDAQAATRRQAVGLLAFLGLLFCLGVAMFTYQSLQGCPRKMAGEMAEGLRYIPRSCGSNSYVLVPV
- pIC50_value (human GPCRs; receptor CX3CR1 (cx3c1_human, P49238)): 8.9

B12: CCL21 (protein, UniProt O00585 24-134, looked up)
C-C motif chemokine 21: SDGGAQDCCLKYSQRKIPAKVVRSYRKQEPSLGCSIPAILFLPRKRSQAELCADPKELWVQQLMQHLDKTPSPQKPAQGCRKDRGASKTGKKGKGSKGCKRTERSQTPKGP
- pIC50_value (human GPCRs; receptor CCR7 (ccr7_human, P32248)): 9.3

B13: XCL1 (protein, UniProt P47992 22-114, looked up)
Lymphotactin: VGSEVSDKRTCVSLTTQRLPVSRIKTYTITEGSLRAVIFITKRGLKVCADPQATWVRDVVRSMDRKSNTRNNMIQTKPTGTQQSTNTAVTLTG
- pEC50_value (human GPCRs): 7.3

B14: XCL2 (protein, UniProt Q9UBD3 22-114, looked up)
Cytokine SCM-1 beta: VGSEVSHRRTCVSLTTQRLPVSRIKTYTITEGSLRAVIFITKRGLKVCADPQATWVRDVVRSMDRKSNTRNNMIQTKPTGTQQSTNTAVTLTG
- pEC50_value (human GPCRs): 7.3

B15: CXCL7 (protein, UniProt P02775 59-128, looked up)
Neutrophil-activating peptide …: AELRCMCIKTTSGIHPKNIQSLEVIGKGTHCNQVEVIATLKDGRKICLDPDAPRIKKIVQKKLAGDESAD
modifications: Neutrophil-activating peptide 2
- pIC50_value (human GPCRs; receptor CXCR2 (cxcr2_human, P25025)): 9.3

B16: CXCL16 (protein, UniProt Q9H2A7 30-254, looked up)
C-X-C motif chemokine 16: NEGSVTGSCYCGKRISSDSPPSVQFMNRLRKHLRAYHRCLYYTRFQLLSWSVCGGNKDPWVQELMSCLDLKECGHAYSGIVAHQKHLLPTSPPISQASEGASSDIHTPAQMLLSTLQSTQRPTLPVGSLSSDKELTRPNETTIHTAGHSLAAGPEAGENQKQPEKNAGPTARTSATVPVLCLLAIIFILTAALSYVLCKRRRGQSPQSSPDLPVHYIPVAPDSNT
- pKd_value (human GPCRs; receptor CXCR6 (cxcr6_human, O00574)): 9

B17: prokineticin-1 (protein, UniProt P58294 20-105, looked up)
Prokineticin-1: AVITGACERDVQCGAGTCCAISLWLRGLRMCTPLGREGEECHPGSHKVPFFRKRKHHTCPCLPNLLCSRFPDGRYRCSMDLKNINF
- pIC50_value (human GPCRs; [6]): 7.6
- pIC50_value (human GPCRs; [7]): 7.3
